{"source": "paper PMC3578875", "biological_target": "human mu opioid receptor, N-terminally his-tagged (human) (UniProt P35372)", "sequence (P35372 whole entry)": "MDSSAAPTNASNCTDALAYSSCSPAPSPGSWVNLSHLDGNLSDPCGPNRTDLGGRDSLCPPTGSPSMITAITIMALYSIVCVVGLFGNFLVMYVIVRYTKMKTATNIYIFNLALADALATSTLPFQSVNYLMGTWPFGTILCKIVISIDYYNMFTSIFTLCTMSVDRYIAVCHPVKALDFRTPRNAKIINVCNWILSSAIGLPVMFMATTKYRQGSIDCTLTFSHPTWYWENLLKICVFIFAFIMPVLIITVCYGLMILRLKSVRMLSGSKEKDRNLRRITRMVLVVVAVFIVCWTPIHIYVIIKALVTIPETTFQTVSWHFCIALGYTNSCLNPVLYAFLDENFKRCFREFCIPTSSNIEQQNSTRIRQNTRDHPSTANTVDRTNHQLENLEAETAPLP", "assay": "SPR; Biacore-X, 25°C; OPRM captured on a Ni-NTA sensor chip (about 4000 RU), second cell as reference; running Buffer B (5 mM NaHPO4, 10% glycerol, 0.07% Fos-12, pH 7.5); EM-1 injected at 10, 30, 50, 60, 80, 100 nM, 5 µl/min, no regeneration; 1:1 interaction model", "data": [{"substance": "endomorphin-1 (peptide)", "values": [{"measurement": "Kd", "result": 0.0609, "unit": "µM"}]}]}
